{"source": "patent US20170368132A1", "about": "(published 2017)", "key": {"H. sapiens Rad51": {"target": "T1, H. sapiens Rad51 (H. sapiens, UniProt Q06609 1-339)", "T1 construct": "Expressed in yeast as a two-hybrid fusion; also called human RAD51", "T1 sequence": "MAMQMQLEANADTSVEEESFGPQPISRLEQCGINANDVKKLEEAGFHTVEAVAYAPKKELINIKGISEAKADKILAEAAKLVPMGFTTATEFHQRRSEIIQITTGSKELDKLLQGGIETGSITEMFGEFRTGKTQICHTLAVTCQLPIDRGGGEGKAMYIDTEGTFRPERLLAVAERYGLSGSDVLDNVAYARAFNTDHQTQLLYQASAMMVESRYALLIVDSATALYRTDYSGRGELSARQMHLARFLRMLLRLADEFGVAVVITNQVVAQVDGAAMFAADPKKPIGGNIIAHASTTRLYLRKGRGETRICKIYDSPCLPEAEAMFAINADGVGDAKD", "experiment": "yeast two-hybrid, growth on -ADE -HIS", "protocol": "RAD51-binding peptides were tested for ability to bind RAD51 of several different species using a “conventional” Y2H assay, where interaction between the two-hybrid pair drove expression of ADE2 and HIS genes. In this Y2H assay the two-hybrid pair was RAD51 and the compound 5 peptide sequence (SEQ ID NO.:5), so that cells having the interaction would survive (+) and cells not having the interaction would die (−) on selective media (−ADE, −HIS)."}, "Rad51 (A190L; A192L)": {"target": "T2, Rad51 (A190L; A192L) (human, UniProt Q06609 1-339)", "T2 construct": "Human RAD51 mutant tested by Y2H; also called human RAD51 A190L A192L", "T2 chain": "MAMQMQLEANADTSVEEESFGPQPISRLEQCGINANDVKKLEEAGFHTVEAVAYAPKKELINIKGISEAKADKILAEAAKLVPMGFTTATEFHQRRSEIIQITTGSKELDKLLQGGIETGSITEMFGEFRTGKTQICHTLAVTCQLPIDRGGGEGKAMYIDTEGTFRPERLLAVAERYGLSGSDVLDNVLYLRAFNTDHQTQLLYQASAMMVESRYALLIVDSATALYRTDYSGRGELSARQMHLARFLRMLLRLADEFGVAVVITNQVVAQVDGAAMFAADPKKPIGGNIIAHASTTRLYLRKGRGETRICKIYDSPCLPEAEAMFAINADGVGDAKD", "experiment": "yeast two-hybrid, human RAD51 mutant", "protocol": "(§1) The ability of peptides to bind human RAD51 with various mutations was then tested by Y2H assay. […] While mutations affecting BRCA2 binding had no effect on peptide binding, mutations that affected RAD51-AP1 binding did disrupt peptide binding. As these mutations were at residues 202, 205, and 206, they were consistent with the previous fusion data showing binding somewhere in the 190-218 region, and indicated the peptide SEQ ID NO.:5 contacts at least residues 202, 205, and 206 of RAD51."}, "Rad51 (F86E; A89E)": {"target": "T3, Rad51 (F86E; A89E) (human, UniProt Q06609 1-339)", "T3 construct": "Human RAD51 mutant tested by Y2H; also called human RAD51 F86E A89E", "T3 chain": "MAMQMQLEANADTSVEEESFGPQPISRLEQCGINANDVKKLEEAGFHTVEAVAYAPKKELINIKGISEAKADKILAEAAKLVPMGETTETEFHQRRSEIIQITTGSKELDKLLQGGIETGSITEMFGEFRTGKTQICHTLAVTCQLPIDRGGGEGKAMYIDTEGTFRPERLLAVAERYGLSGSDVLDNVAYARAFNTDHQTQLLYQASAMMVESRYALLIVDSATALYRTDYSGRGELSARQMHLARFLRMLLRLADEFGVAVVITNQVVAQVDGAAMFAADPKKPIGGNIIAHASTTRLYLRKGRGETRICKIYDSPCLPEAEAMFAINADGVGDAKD", "experiment": "yeast two-hybrid, human RAD51 mutant", "protocol": "as §1"}, "[1]": {"target": "T4, Rad51 (S208L; A209E; M210A) (human, UniProt Q06609 1-339)", "T4 construct": "Human RAD51 mutant tested by Y2H; also called human RAD51 S208L A209E M210A", "T4 chain": "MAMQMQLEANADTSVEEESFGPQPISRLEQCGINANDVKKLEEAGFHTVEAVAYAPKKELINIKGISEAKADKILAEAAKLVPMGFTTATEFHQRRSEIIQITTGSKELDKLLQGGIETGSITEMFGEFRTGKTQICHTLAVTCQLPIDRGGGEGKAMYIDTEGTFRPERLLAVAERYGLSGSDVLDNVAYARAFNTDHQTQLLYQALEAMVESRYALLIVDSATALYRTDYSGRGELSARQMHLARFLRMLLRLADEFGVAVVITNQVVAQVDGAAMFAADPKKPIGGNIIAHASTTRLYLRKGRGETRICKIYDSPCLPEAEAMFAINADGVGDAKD", "experiment": "yeast two-hybrid, human RAD51 mutant", "protocol": "as §1"}, "[2]": {"target": "T5, Rad51 (Q202R, Y205D, Q206A) (human, UniProt Q06609 1-339)", "T5 construct": "Human RAD51 mutant tested by Y2H; also called human RAD51 Q202R Y205D Q206A", "T5 chain": "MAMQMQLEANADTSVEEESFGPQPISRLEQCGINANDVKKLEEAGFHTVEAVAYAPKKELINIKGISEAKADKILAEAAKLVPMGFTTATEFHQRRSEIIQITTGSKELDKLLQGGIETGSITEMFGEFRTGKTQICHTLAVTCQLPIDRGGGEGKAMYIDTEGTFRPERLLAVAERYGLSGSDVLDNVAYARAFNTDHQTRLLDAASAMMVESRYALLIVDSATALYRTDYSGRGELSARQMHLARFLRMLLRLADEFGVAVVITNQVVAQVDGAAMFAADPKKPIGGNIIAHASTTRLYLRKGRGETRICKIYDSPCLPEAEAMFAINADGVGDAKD", "experiment": "yeast two-hybrid, human RAD51 mutant", "protocol": "as §1"}, "Rad51 (S208E; A209D)": {"target": "T6, Rad51 (S208E; A209D) (human, UniProt Q06609 1-339)", "T6 construct": "Human RAD51 mutant tested by Y2H; also called human RAD51 S208E A209D", "T6 chain": "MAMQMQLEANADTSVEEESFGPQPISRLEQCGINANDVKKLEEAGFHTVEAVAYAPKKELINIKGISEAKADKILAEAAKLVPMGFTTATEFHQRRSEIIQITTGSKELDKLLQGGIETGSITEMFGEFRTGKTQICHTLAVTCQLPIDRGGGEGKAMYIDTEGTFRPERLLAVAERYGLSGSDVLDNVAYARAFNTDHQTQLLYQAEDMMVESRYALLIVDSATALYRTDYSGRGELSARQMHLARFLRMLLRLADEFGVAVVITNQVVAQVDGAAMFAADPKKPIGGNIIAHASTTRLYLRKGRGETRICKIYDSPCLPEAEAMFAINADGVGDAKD", "experiment": "yeast two-hybrid, human RAD51 mutant", "protocol": "as §1"}}}
{"binder": "KRRRRRRRKRLGVRLRVSRML", "note": "[compound 5 peptide sequence (SEQ ID NO.:5)]", "values": [{"measurement": "binding result", "setting": "H. sapiens Rad51", "result": "binds"}, {"measurement": "binding result", "setting": "Rad51 (A190L; A192L)", "result": "binds"}, {"measurement": "binding result", "setting": "Rad51 (F86E; A89E)", "result": "binds"}, {"measurement": "binding result", "setting": "[1]", "result": "binds"}, {"measurement": "binding result", "setting": "[2]", "result": "no binding"}, {"measurement": "binding result", "setting": "Rad51 (S208E; A209D)", "result": "binds"}]}
